Measurements as given in US20220305006A1 (University of California, published 2022).

Key:
Assay in all cases: cell-based or functional assay
[1] = biological target: BACE in CHO-7W cells (Chinese hamster ovary cells stably transfected with wildtype human APP)
[2] = biological target: BACE1 expressed from a transfected plasmid in 293T cells (NRG1 and PSGL1 assays)
[3] = biological target: Recombinant Human Cathepsin D (human, UniProt P07339 65-412)
Sequence of Recombinant Human Cathepsin D (P07339 65-412): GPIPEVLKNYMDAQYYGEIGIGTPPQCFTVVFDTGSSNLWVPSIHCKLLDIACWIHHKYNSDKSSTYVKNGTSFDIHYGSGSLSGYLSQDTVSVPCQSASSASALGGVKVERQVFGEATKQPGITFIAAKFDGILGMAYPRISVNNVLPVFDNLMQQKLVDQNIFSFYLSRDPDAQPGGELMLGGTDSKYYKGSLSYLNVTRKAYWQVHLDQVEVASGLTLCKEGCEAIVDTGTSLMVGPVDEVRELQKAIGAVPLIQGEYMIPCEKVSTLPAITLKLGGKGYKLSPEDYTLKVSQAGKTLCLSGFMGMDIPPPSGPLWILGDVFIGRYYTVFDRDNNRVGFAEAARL

Binder: Ac-ALYPYFLPISAK-NH2 [Peptide 65007]
- decrease of BACE cleavage product sAPPβ from CHO-7W cells, EC50 [1]: ~10 µM
- NRG1 cleavage by BACE in co-transfected 293T cells (secreted alkaline phosphatase), EC50 [2]: > 10 µM
- PSGL1 cleavage by BACE in co-transfected 293T cells (secreted alkaline phosphatase), EC50 [2]: > 10 µM
- Cat D activity (fluorogenic substrate), IC50 [3]: > 5 µM
